The target of this assay is T1, Biotin-BH4-Bcl-XL (Homo sapiens (Human), UniProt Q07817, biotin on the N-terminus (also used without the biotin tag)).
T1 chain: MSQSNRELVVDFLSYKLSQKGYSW
Briefly: SPR.

B1: GST-tagged IP3R1 domain 3 (mouse IP3R1, a.a. 923-1581) (protein)
chain: SIHGVGELMTQVVLRGGGFLPMTPMAAAPEGNVKQAEPEKEDIMVMDTKLKIIEILQFILNVRLDYRISCLLCIFKREFDESNSQSSETSSGNSSQEGPSNVPGALDFEHIEEQAEGIFGGSEENTPLDLDDHGGRTFLRVLLHLTMHDYPPLVSGALQLLFRHFSQRQEVLQAFKQVQLLVTSQDVDNYKQIKQDLDQLRSIVEKSELWVYKGQGPDEPMDGASGENEHKKTEEGTSKPLKHESTSSYNYRVVKEILIRLSKLCVQESASVRKSRKQQQRLLRNMGAHAVVLELLQIPYEKAEDTKMQEIMRLAHEFLQNFCAGNQQNQALLHKHINLFLNPGILEAVTMQHIFMNNFQLCSEINERVVQHFVHCIETHGRNVQYIKFLQTIVKAEGKFIKKCQDMVMAELVNSGEDVLVFYNDRASFQTLIQMMRSERDRMDENSPLMYHIHLVELLAVCTEGKNVYTEIKCNSLLPLDDIVRVVTHEDCIPEVKIAYINFLNHCYVDTEVEMKEIYTSNHMWKLFENFLVDICRACNNTSDRKHADSILEKYVTEIVMSIVTTFFSSPFSDQSTTLQTRQPVFVQLLQGVFRVYHCNWLMPSQKASVESCIRVLSDVAKSRAIAIPVDLDSQVNNLFLKSHNIVQKTALNWRLSAR
Turning to B1, the binding result is listed as “no binding”.

For the origin of these results see article PMC4397538 (2015).
